# Test: soluble on expression in E. coli; label from the status in PepcDB or PDB records
row,Sequence,soluble on expression in E. coli
1,MGSDKIHHHHHHMMTSTPRLLQAIQQTTTAILKTNLVGIYLHGSYVLGSYNEQVSDLDYLIVVRRSLTLAEKRQLMTATITQLWPLAPHKGLEFHVLLLSATQHFVHPCPFDFHFSKYHYEDYQRTPLAYLKAMHGTDPDLAAHLTILQAAGQVLLGPAITTVFGPIPAVAYWDSIKSDIANAETAIVQLPMYTVLNLCRVRAYQQDQLIISKQAGGEWGLQQLPTQWHPLIRQALAAYAGQQDEQVIRWSRPNLVAFARIMLAELGLKSE,not soluble
2,MNYELLTTENAPVKMWTKGVPVEADARQQLINTAKMPFIFKHIAVMPDVHLGKGSTIGSVIPTKGAIIPAAVGVDIGCGMNALRTALTAADLPENLAELRQAIETAVPHGRTTGRCKRDKGAWENPPFNVDAKWAELEAGYQWLTQKYPRFLNTNNYKHLGTLGTGNHFIEICLDESEQVWIMLHSGSRGIGNAIGTYFIDLAQKEMQDQLETLPSRDLAYFMEGTEYFDDYLRAVAWAQLFASLNRDAMMENVVTALQSITQKTVRQPQTLAMEEINCHHNYVQKEQLFGEEIYVTRKGAVSARAGQYGIIPGSMGAKSFIVRGLGNEESFCSCSHGAGRVMSRTKAKKLFSVEDQIRATAHVECRKDAEVIDEIPMAYKDIDAVMAAQSDLVEVIYTLRQVVCVKGLEHHHHHH,soluble
3,MIVPPPEELTGARVLAYALIDESTPYSGRITLYVDGELIGPVPRLVIALNNYGPDDYLLLYCNENWDVIGAGGHASLVAAKESANIAYPGVASRWQDVA,not soluble
4,MGRYSVKRYKTKRRTRDLDLIYNDLSTKESVQKLLNQPLDETKPGLGQHYCIHCAKYMETAIALKTHLKGKVHKRRVKELRGVPYTQEVSDAAAGYNLNKFLNRVQEITQSVGPEKESNEALLKEHLDSTLANVKTTEPTLPWAAADAEANTAAVTEAESTASAST,soluble
5,MTCWLRGVTATFGRPAEWPGYLSHLCGRSAAMDLGPMRKSYRGDREAFEETHLTSLDPVKQFAAWFEEAVQCPDIGEANAMCLATCTRDGKPSARMLLLKGFGKDGFRFFTNFESRKGKELDSNPFASLVFYWEPLNRQVRVEGPVKKLPEEEAECYFHSRPKSSQIGAVVSHQSSVIPDREYLRKKNEELEQLYQDQEVPKPKSWGGYVLYPQVMEFWQGQTNRLHDRIVFRRGLPTGDSPLGPMTHRGEEDWLYERLAP,soluble
6,MLQINRHILDNGLRLVHAQDTSTQMVALNILYNVGARDENPEHTGFAHLFEHLMFGGSVNIPDYDAPLQLAGGENNAWTNNDITNYYLTVPRQNVETGFWLESDRMLSLDFSERSLEVQRGVVMEEFKQRCLNQPYGDVGHLLRPLAYRVHPYQWPTIGKELSHIANATLEEVKDFFFRFYAPNNAVLAVTGNISFEEALHLTEKWFGPIPRREVPLRQLPPEPVQTEERRLVVERNVPLDSLFMAYHMCDRADSDYYAFDILSDILSNGRSSRLNQHLVQEKQLFSSIDAYISGTLDAGLFHISGKPAAGVSLEEAEAAVREELNELQSALIQEQELEKVKNKFESTQIFGNINYLNVATNLAWFELNGRAEDMEKEVERYRAVTADRLNAVAQTAFREENGVVLYYKSSRGEKDETYI,not soluble
7,MGSDKIHHHHHHMSVRNFMAYHQLSYTFLNHQKLPLIIQPQAKAEGNIDVLKQFLKEENTLFKEQLLNYGAIILRGFHVNTAEQFLEVIRSSDLGPNYSYDFCPIPRTQIRENIYTSINIHPSFNLALHNEKSYDQDFPSHIFFNCIHAPQTGGDTALADGNKIWFSLPKLLQKKLQSKGILYRRHYYGSGIQYKIIRSIGKNSGCMTWMERFQTDDQNKVEVMLQQMGVQFRWIQGNGLIIEQLLPACRNHPISGKLVWFNQSNHANHYYNGTSDYIKSKINNTFSRFILLHKYFHPYIAFYGDGEPLSKQEADCINSAIQKNTVSTAWQPGDVMIVDNFSCLHGKTPHTGNRLILVGLTKYFD,not soluble
8,MSLSKMEEILVIGVNTRPVVESAFRLGYRVYSAGYYCTADFKHYTERRCILRERSGESCGRFHENFSQEKLLEAASDFIERADGIIPLTGAPPLPGEKVLGNSRVDHVEDKYRLYRRIRNSYPTPETHLISDPAEAMEIVAAGEKKYIAKPVSGAGGFGVTEFREGDGEFLLQEYIEGVPVSASVLSTGEDAITVLTSRQIIDRGVPGFEGQFVYAGNMTPGPSGEIEDLASDLILDLSLRGSNGVDLIMRDSELYVIEVNPRIQGTFECAEASLGINMVDAHIRACMGELIEKPDPVSYAVKRILYAPARCRVGEIKTMGVHDLPVPGTIIEEGEPLLTVLASHNSMEAAENLASNICSRVKKELHYLRCPPPRPQGVEGHHHHHH,not soluble
9,MVVLKVTLLEGRPPEKKRELVRRLTEMASRLLGEPYEEVRVILYEVRRDQWAAGGVLFSDKEGT,soluble

# Source: the DeepSol protein solubility set
